Measurements from article doi:10.1101/2022.09.05.506711, “New structures of Class II Fructose-1,6-Bisphosphatase from Francisella tularensis suggest a novel catalytic mechanism for the entire Class” (bioRxiv, 2022).

Target: the molecule itself
Assay: crystal structure

B1: Mycobacterium tuberculosis class II fructose-1,6-bisphosphatase (enzyme)
chain: MELVRVTEAGAMAAGRWVGRGDKEGGDGAAVDAMRELVNSVSMRGVVVIGEGEKDHAPMLYNGEEVGNGDGPECDFAVDPIDGTTLMSKGMTNAISVLAVADRGTMFDPSAVFYMNKIAVGPDAAHVLDITAPISENIRAVAKVKDLSVRDMTVCILDRPRHAQLIHDVRATGARIRLITDGDVAGAISACRPHSGTDLLAGIGGTPEGIIAAAAIRCMGGAIQAQLAPRDDAERRKALEAGYDLNQVLTTEDLVSGENVFFCATGVTDGDLLKGVRYYPGGCTTHSIVMRSKSGTVRMIEAYHRLSKLNEYSAIDFTGDSSAVYPLP
notes: also called MtFBPaseII; MtFBPase
stoichiometry N: 4
